Data: patent US20070093443A1

Target: Complement C2 (human) (human) (UniProt P06681)
Assay: cell-based or functional assay

Complement C2 (human) (human), sequence (P06681 21-752 limits assumed): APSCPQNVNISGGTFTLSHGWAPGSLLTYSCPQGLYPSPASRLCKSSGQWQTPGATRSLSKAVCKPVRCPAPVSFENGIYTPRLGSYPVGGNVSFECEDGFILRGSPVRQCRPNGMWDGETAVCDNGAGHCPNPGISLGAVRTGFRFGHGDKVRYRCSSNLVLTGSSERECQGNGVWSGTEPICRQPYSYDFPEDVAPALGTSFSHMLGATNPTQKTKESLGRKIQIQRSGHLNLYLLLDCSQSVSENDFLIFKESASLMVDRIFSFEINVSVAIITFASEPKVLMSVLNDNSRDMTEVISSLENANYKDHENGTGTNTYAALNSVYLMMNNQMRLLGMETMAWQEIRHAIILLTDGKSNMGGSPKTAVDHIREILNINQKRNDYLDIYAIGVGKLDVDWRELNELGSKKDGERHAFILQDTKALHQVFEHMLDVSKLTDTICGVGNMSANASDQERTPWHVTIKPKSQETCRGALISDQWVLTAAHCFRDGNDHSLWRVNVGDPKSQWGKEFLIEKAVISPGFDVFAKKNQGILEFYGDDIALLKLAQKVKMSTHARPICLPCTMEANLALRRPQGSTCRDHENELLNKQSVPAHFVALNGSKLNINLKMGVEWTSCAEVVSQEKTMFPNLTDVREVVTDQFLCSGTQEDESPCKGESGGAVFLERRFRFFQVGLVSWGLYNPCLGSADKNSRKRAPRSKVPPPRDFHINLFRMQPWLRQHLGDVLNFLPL

IC50 of the proteases for cleavage of C2 (Western blot densitometry, 5% human plasma, 1 h 37 C)	Substance
0.0119 µM	modified MT-SP1 CB42 (Y146E) protease domain (from UniProt Q9Y5Y6 615-855) (enzyme)
0.0157 µM	wildtype MT-SP1 protease domain (CB200) (from UniProt Q9Y5Y6 615-855) (enzyme)
